This passage reports normalized signal (fluorescence intensity normalized to trastuzumab) and EC50 results from patent US20250002576A1.

In one assay the target is lysozyme. Nature of the assay: non-specific binding ELISA, lysozyme immobilized. On the technique in general: An ELISA detects its analyte on a solid surface through an enzyme-linked reagent.
The target of assay [1] is human Claudin 18.2 (human) (UniProt P56856). Nature of the assay: flow cytometry, antibody dilution series on hCLDN18.2-expressing MiaPaCa-2 cells. In general terms: Flow cytometry measures light scatter and fluorescence of single cells or particles in a stream.

pEC50: −log10 of the molar value.

The pEC50 is −log10 of the EC50, conventionally taken in molar units. High values mean a low EC50, low ones a high EC50. Consider claudiximab (antibody), for which the normalized signal (fluorescence intensity normalized to trastuzumab) with lysozyme is 0.9. Besides, in assay [1], the pEC50 is 8.06.
